Five substances from publication PMC11306496 can be followed below.

Holding throughout (assay): co-IP; total rat hippocampal lysates with primary antibody and Protein A/G agarose, 4°C; buffer pH 7.4, 0.05 mol/L HEPES, 0.15 mol/L NaCl, 0.5% NP-40, 1% Triton X-100; non-immune IgG as control; slices untreated or treated with PMA (0.5 umol/L, 10 min) and/or AIP (1 umol/L)
The target in assay [1] is Rab11 family-interacting protein 3 (rat (endogenous in hippocampus)).
The target of assay [2] is small GTPase Rab11 (rat (endogenous in hippocampus)) (UniProt P62494).
Assay [3] has as its target NMDA receptor subunit GluN1 (rat (endogenous in hippocampus)) (UniProt P35439).
Assay [4] concerns the target myosin Va (rat (endogenous in hippocampus)) (UniProt Q9QYF3).

Chain of small GTPase Rab11 (P62494 whole entry): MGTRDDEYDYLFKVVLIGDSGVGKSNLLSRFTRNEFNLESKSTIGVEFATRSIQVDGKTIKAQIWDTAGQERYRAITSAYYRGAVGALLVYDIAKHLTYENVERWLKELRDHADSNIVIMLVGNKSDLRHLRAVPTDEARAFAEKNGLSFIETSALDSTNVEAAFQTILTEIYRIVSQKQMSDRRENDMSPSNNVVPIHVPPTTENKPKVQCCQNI
Chain of small GTPase Rab11 (rat (endogenous in hippocampus)) (P62494 whole entry): as above
Chain of NMDA receptor subunit GluN2A (Q00959 23-1464): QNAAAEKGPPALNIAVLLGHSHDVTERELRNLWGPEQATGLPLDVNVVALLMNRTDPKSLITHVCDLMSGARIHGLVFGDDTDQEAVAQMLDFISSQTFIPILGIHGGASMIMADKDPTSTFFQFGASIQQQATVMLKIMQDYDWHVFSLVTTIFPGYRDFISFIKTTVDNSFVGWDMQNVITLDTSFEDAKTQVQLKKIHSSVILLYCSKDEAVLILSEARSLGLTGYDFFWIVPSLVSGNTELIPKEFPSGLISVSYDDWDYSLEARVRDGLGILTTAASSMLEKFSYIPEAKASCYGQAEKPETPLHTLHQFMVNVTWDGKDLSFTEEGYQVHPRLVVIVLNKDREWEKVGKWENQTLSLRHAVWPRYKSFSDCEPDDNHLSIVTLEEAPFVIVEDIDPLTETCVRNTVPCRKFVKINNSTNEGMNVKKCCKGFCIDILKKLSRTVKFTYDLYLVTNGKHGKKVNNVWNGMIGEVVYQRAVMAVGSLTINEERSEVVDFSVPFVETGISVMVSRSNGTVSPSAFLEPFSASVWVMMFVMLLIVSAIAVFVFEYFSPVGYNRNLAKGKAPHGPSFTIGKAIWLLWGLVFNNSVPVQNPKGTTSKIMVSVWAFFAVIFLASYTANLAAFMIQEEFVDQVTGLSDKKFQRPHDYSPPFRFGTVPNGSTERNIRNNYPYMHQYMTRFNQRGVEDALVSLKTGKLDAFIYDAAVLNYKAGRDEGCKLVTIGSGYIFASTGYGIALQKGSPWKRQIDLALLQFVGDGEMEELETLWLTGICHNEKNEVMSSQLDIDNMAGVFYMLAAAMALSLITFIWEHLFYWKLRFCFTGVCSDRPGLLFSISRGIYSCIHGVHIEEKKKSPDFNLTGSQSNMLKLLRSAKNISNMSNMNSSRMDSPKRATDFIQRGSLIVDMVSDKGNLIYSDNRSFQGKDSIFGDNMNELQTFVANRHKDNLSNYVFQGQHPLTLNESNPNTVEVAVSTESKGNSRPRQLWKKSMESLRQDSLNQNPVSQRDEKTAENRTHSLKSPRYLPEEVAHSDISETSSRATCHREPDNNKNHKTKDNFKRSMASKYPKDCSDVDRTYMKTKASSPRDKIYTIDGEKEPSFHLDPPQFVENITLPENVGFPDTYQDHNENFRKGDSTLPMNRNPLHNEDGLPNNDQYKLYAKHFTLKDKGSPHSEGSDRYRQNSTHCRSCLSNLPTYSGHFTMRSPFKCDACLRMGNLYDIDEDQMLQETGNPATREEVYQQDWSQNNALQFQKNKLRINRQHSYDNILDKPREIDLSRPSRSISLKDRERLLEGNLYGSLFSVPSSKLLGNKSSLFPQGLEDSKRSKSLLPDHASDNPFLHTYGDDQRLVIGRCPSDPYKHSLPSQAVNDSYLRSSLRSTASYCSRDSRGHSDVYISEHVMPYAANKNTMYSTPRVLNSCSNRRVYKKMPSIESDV
Chain of myosin Va (rat (endogenous in hippocampus)) (Q9QYF3 whole entry): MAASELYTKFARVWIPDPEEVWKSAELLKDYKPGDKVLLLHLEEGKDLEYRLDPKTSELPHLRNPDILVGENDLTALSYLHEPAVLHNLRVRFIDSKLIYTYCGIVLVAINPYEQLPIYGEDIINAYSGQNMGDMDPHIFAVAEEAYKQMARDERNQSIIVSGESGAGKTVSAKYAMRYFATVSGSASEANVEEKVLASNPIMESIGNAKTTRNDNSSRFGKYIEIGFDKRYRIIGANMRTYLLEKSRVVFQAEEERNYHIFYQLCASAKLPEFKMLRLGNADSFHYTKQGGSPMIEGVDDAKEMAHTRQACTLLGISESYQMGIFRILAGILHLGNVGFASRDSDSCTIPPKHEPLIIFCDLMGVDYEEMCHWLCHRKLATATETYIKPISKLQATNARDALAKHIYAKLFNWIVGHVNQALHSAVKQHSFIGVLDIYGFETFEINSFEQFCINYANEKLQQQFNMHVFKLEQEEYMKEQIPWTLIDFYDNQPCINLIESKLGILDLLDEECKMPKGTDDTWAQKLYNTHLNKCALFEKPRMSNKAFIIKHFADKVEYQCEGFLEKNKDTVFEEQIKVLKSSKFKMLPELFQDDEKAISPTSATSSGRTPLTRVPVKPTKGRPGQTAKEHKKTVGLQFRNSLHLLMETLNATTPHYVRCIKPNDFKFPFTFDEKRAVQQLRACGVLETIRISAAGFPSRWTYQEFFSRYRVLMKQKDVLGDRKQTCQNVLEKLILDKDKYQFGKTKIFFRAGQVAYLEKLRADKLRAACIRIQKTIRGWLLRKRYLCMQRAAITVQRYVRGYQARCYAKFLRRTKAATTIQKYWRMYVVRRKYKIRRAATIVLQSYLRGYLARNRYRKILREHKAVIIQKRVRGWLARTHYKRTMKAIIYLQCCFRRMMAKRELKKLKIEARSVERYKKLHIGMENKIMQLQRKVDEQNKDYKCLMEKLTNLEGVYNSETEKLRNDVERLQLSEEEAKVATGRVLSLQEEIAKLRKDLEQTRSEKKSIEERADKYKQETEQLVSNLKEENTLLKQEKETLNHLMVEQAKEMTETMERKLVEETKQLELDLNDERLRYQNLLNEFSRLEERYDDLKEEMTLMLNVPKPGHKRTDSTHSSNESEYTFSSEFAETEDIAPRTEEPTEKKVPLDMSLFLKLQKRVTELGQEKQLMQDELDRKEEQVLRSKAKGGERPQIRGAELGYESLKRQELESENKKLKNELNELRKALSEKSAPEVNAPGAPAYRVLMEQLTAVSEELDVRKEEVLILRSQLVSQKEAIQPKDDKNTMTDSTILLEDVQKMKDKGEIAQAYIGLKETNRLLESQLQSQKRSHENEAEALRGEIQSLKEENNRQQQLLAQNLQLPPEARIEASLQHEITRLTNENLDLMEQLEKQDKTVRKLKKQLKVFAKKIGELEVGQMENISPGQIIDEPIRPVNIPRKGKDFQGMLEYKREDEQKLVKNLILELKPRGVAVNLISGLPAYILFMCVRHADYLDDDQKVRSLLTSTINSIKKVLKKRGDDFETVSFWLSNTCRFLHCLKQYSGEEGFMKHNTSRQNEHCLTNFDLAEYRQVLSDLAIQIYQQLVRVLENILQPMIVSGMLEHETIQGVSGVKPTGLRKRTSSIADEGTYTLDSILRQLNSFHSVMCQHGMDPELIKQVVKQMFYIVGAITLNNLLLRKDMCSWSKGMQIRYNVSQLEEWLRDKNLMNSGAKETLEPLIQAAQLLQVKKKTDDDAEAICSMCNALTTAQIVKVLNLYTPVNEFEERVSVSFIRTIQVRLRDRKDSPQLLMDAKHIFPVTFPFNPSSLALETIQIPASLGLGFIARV

In assay [1], “NMDA receptor subunit GluN1 (from UniProt P35439 19-938)” came in with a co-IP signal with PMA, normalised to control (IP with anti-FIP3) (fold of control) of 1.44. The co-IP signal with PMA, normalised to control (IP with anti-Rab11) (fold of control) in assay [2] is 1.5.

“NMDA receptor subunit GluN2A (from UniProt Q00959 23-1464)” showed a co-IP signal with PMA, normalised to control (IP with anti-FIP3) (fold of control) in assay [1] of 1.45. The co-IP signal with PMA, normalised to control (IP with anti-Rab11) (fold of control) in assay [2] is 1.39.

In turn, “Rab11 family-interacting protein 3 (natural protein)” yielded a co-IP signal with PMA, normalised to control (IP with anti-GluN1) (fold of control) in assay [3] of 1.37.

As to “myosin Va (from UniProt Q9QYF3 1-1828) (natural protein)”, the co-IP signal with PMA, normalised to control (IP with anti-FIP3) (fold of control) in assay [1] is 1.33. The co-IP signal with PMA, normalised to control (IP with anti-Rab11) (fold of control) in assay [2] was 1.33.

In assay [3], “small GTPase Rab11 (from UniProt P62494 1-216) (natural protein)” gave a co-IP signal with PMA, normalised to control (IP with anti-GluN1) (fold of control) of 1.53. The substance also had a co-IP signal with PMA, normalised to control (IP with anti-FIP3) (fold of control) in assay [1] of 1.38. The co-IP signal with PMA, normalised to control (IP with anti-MyoVa) (fold of control) in assay [4] was 1.31.
